{"source": "paper PMC8290593", "about": "“PTD-mediated delivery of α-globin chain into Κ-562 erythroleukemia cells and α-thalassemic (HBH) patients’ RBCs ex vivo in the frame of Protein Replacement Therapy” (Journal of Biological Research, 2021)", "proteins": {"B1": {"name": "10xHis-Xa_(SITE)-α-globin-HA (natural protein)", "chain": "not shown", "notes": "A factor Xa site (Xa_(SITE), from pET-16b) lies between the 10xHis tag and α-globin. ~18.7 kDa as printed; also called α-monomer; recombinant α-globin chain; source: E. coli CD43 (DE3), pET-16b; also as bacterial inclusion bodies dissolved in 1 M L-Arg; not shown: 10xHis, N-terminal, kept; HA, C-terminal, kept"}}, "target": "the molecule itself", "test": "SDS-PAGE and Western blot; recombinant protein extracts (bacterial inclusion bodies in 1 M L-Arg pH 8.0, and soluble proteins purified by Ni2+-NTA) on 15% SDS-PAGE, immunoblotted with anti-His.IgG", "data": [{"protein": "B1", "values": [{"measurement": "binding result", "value": "binds"}]}]}
